± gives the half width of the 95% confidence interval.
Tests used:
[1] = folding stability dG unfold from chymotrypsin proteolysis; higher = more stable
In short: (§1)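 Sequencing followed digestion of designed mini-proteins with trypsin and chymotrypsin, each at 11 concentrations in threefold dilutions together with a no-protease condition. The mini-proteins were under 80 residues, had no cysteine, sat in a PA-tagged cDNA display construct, and were kept only if AlphaFold2 dimer inter-PAE was above 15. From the counts, Bayesian fitting gave K50, and unfolding free energy was derived against a sequence-predicted unfolded-state K50 and a shared folded-state K50, per protease or combined.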

[2] = folding stability dG unfold from trypsin proteolysis; higher = more stable
In short: as §1

[3] = folding stability dG unfold (combined trypsin and chymotrypsin); higher = more stable
In short: as §1

Row | Sequence | folding stability dG unfold [1] [kcal/mol] | folding stability dG unfold [2] [kcal/mol] | folding stability dG unfold [3] [kcal/mol]
1 | SAGGSAGGSKTITLSAEELEKMSPEERKKLAELAEKLGAKIEVKDGKVTITIEGLTPEELKALSAGGSAGGS [r12_945_TrROS_Hall] | 2.33 ± 0.12 | 3.84 ± 0.25 | 3.06 ± 0.25
2 | SAGGSAGGSKTITVRVKITLPNGETIEVEAEITVRPDGSITITLPDGSTITLPPGAKVEIEPVSAGGSAGGS [r20_227_TrROS_Hall] | 2.51 ± 0.17 | 2.99 ± 0.12 | 2.85 ± 0.26
3 | SAGGSAGGSKTIVITIEPNVKTPEQLLELLKKIRELSKPGEKIVIIASPEVLEALKKAGLIEESAGGSAGGS [r12_992_TrROS_Hall] | 3.7 ± 0.086 | 3.2 ± 0.16 | 3.49 ± 0.097
4 | SAGGSAGGSKTIVLPKNMSIEQAREEILAKARELLPPGEKLKVTIEVVETPEGTYLKITIEKESAGGSAGGS [r12_1051_TrROS_Hall] | 3.51 ± 0.086 | 2.49 ± 0.06 | 3.22 ± 0.058
5 | SAGGSAGGSKTKTIEIEVDGKKVRITVNEDGSVTIEVYYPGKPVKTIEIPGMSIEEILKALLESAGGSAGGS [r20_8_TrROS_Hall] | 2.27 ± 0.071 | 3.08 ± 0.071 | 2.73 ± 0.098
6 | SAGGSAGGSKTPVFYIPPSLKDPEKAIELLEEIRKKIPPGTKIAVIAPGGGIPELKKAGLITASAGGSAGGS [r12_992_TrMRF] | 0.518 ± 0.03 | 0.344 ± 0.048 | 0.472 ± 0.11
7 | SAGGSAGGSKTVEITITRKDGKKLKIEFYPDGYIKIYDSNGKLVKTIKVDPNASIEEILKALKSAGGSAGGS [r12_990_TrROS_Hall] | 3.38 ± 0.038 | 3.31 ± 0.12 | 3.39 ± 0.083
8 | SAGGSAGGSKTVVITLPENEELGLEKLEELIEKVGPDAKIIISRWDPETGKVDYLVIETGEGKSAGGSAGGS [r12_913_TrMRF] | 1.92 ± 0.21 | 1.02 ± 0.041 | 1.69 ± 0.14
9 | SAGGSAGGSKVEVKEFEFKANGSKALIEKLEDGSVKIIVLGEEPKEYEISPEEPIVILPGFEVSAGGSAGGS [r12_1003_TrMRF] | -0.172 ± 0.1 | -0.341 ± 0.068 | -0.172 ± 0.09
10 | SAGGSAGGSKVFTVEELENMTPEEIRALIKKSKKPVIIVAKSEEEKKRAAELLKELGVEVKVLSAGGSAGGS [r12_97_TrROS_Hall] | 3.6 ± 0.057 | 3.73 ± 0.12 | 3.7 ± 0.11
11 | SAGGSAGGSKVKLTFTIPPGTTPEEAIAKAEELAKKLNIPIVKIDSIEYDPETGTVRIELELDSAGGSAGGS [r12_131_TrMRF] | 4.31 ± 0.049 | 4.05 ± 0.15 | 4.31 ± 0.068
12 | SAGGSAGGSLEVKVLGIVGDKPVEVTLPAGLGELTLEEIRAAFPPGEWRLVLRDENGNETPLTSAGGSAGGS [r12_540_TrMRF] | -0.00936 ± 0.18 | 0.663 ± 0.089 | 0.446 ± 0.16
13 | SAGGSAGGSLKPFPIEDITVQPRRNPDGNRYYQVSIRIKGPGRPINIPFPMDNPKKFLEDIIKSAGGSAGGS [r20_238_TrROS] | 0.143 ± 0.12 | 0.519 ± 0.081 | 0.285 ± 0.17
14 | SAGGSAGGSLMIPIPPGKPINIKFEIKNDDGHPMRITETYPVKNGYYVIRVENPNGNEQIIPFSAGGSAGGS [r12_31_TrROS] | -0.271 ± 0.2 | -0.247 ± 0.15 | -0.185 ± 0.14
15 | SAGGSAGGSMADITITVTDPATGATRTFPHSVSLEEILAEHPGPVTVTIETPTSTTTLQVPRESAGGSAGGS [r12_1056_JUSTAS] | 0.0731 ± 0.084 | 0.884 ± 0.03 | 0.542 ± 0.056
16 | SAGGSAGGSMDLKDIKILEAYDPGGPVVVTFLNEGKPYTVTIPPENAQILLDLLKEGNIEIKPSAGGSAGGS [r12_604_TrMRF] | 1.54 ± 0.047 | 0.773 ± 0.032 | 1.25 ± 0.054
17 | SAGGSAGGSMDLKNAKIISIEETENEIKITIEVDGKLYTITISKEEAEKLKKLLEDLNIEIIPSAGGSAGGS [r12_604_TrROS_Hall] | 4.3 ± 0.079 | 4.14 ± 0.23 | 4.27 ± 0.14
